Assays:
[1] = target: the molecule itself; assay: SEC; gel filtration chromatography in phosphate buffer
[2] = target: the molecule itself; assay: AUC; sedimentation velocity, Tris buffer; data not shown; told in one sentence together with SDS/PAGE and gel filtration
[3] = target: the molecule itself; assay: native gel or EMSA; native PAGE at 5, 7.5, 10, 12.5 and 15% acrylamide with HMW markers, Ferguson plot of molecular weight
[4] = target: the molecule itself; assay: AUC; sedimentation velocity, phosphate buffer; data not shown; told in one sentence together with SDS/PAGE and gel filtration
[5] = target: the molecule itself; assay: SDS/PAGE (zymogram); 12% SDS/PAGE under standard conditions, gel copolymerised with CM-cellulose; residual oligomers resist SDS and boiling; bands identified as PfuTIM by in-gel digestion and MALDI-TOF MS

B1: Pyrococcus furiosus triosephosphate isomerase (PfuTIM) (enzyme, UniProt P62002 1-228, looked up)
chain: MAKLKEPIIAINFKTYIEATGKRALEIAKAAEKVYKETGVTIVVAPQLVDLRMIAESVEIPVFAQHIDPIKPGSHTGHVLPEAVKEAGAVGTLLNHSENRMILADLEAAIRRAEEVGLMTMVCSNNPAVSAAVAALNPDYVAVEPPELIGTGIPVSKAKPEVITNTVELVKKVNPEVKVLCGAGISTGEDVKKAIELGTVGVLLASGVTKAKDPEKAIWDLVSGIIKE
notes: also called TPI; source: E. coli M15[pREP4], purified (Ni-NTA, gel filtration)
stoichiometry N [1]: 6 | stoichiometry N [2]: 4 | stoichiometry N [3]: 8 | stoichiometry N [4]: 3 | stoichiometry N [5]: 2

— publication PMC5537068, “Endoglucanase activity at a second site in Pyrococcus furiosus triosephosphate isomerase—Promiscuity or compensation for a metabolic handicap?” (FEBS Open Bio, 2017)
